We go through 5 molecules from paper PMC11997652, “Transcription factors MdEIL1 and MdHY5 integrate ethylene and light signaling to promote chlorophyll degradation in mature apple peels”.

Data set [1] concerns the target T1, MdEIL1 (labelled MdEIN3-HIS in the Fig. 7d figure text) (apple, UniProt D5L144 1-659).
T1 sequence: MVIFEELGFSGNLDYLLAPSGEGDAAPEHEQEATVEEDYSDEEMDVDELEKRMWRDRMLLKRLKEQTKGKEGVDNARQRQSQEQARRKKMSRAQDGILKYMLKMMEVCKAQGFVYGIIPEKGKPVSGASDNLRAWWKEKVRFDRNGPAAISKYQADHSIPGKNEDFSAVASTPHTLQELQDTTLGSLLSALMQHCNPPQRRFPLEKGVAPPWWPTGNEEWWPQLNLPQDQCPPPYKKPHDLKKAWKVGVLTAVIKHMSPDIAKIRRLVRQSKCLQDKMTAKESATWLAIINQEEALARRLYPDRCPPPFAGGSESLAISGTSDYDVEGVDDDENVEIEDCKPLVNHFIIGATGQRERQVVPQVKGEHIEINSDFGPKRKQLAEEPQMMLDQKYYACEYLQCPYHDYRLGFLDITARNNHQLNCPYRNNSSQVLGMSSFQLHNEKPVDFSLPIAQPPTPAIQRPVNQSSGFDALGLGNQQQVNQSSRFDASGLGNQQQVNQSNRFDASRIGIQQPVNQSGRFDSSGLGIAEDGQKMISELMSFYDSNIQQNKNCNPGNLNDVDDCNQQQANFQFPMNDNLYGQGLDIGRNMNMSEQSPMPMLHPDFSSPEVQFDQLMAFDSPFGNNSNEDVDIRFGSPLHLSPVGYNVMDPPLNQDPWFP
Kind of data set: EMSA; LightShift Chemiluminescent EMSA kit (Thermo); buffer, salt, pH and temperature not stated; cold probe 25x, 50x, 100x. The conditions noted are these: protein: recombinant; tags: His (pET32a fusion); label: 3' biotin on both strands; blunt.

The target in data set [2] is T2, MdEIL1 (labelled MdEIN3-HIS in the Fig. 7d figure text);MdHY5 (apple;apple, UniProt D5L144;L0MZN5 1-659;1-164, |).
T2 sequence 1: T1 sequence
T2 sequence 2: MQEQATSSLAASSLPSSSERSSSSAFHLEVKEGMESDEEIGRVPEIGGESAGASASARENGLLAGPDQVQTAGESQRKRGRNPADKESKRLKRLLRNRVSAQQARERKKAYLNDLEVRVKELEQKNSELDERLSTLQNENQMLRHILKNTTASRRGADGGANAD
Kind of data set: EMSA; MdHY5 added to MdEIL1 enhances binding; LightShift Chemiluminescent EMSA kit (Thermo); buffer, salt, pH and temperature not stated; cold probe 25x, 50x, 100x. To be noted: protein: recombinant;recombinant; tags: His (pET32a fusion);His (pET32a fusion); label: 3' biotin on both strands; blunt. On the technique in general: Mobility shift assays separate free from complexed probe on a gel.

For data set [3], the target named is T2, MdEIL1 (labelled MdEIN3-HIS in the Fig. …). Kind of data set: EMSA; MdHY5 with MdEIL1 enhances binding; LightShift Chemiluminescent EMSA kit (Thermo); buffer, salt, pH and temperature not stated; cold probe 25x, 50x, 100x. The conditions noted are these: protein: recombinant;recombinant; tags: His (pET32a fusion);His (pET32a fusion); label: 3' biotin on both strands; blunt.

A further data set addresses T3, MdHY5 (apple, UniProt L0MZN5 1-164).
T3 sequence: T2 sequence 2
Kind of data set: EMSA; LightShift Chemiluminescent EMSA kit (Thermo); buffer, salt, pH and temperature not stated; cold probe 25x, 50x, 100x. To be noted: protein: recombinant; tags: His (pET32a fusion); chain copies: 2; label: 3' biotin on both strands; blunt.

The target of data set [4] is T2, MdEIL1 (labelled MdEIN3-HIS in the Fig. …). The experiment in a line: EMSA; MdEIL1 added to MdHY5 enhances binding; LightShift Chemiluminescent EMSA kit (Thermo); buffer, salt, pH and temperature not stated; cold probe 25x, 50x, 100x. To be noted: protein: recombinant;recombinant; tags: His (pET32a fusion);His (pET32a fusion); label: 3' biotin on both strands; blunt.

B1: MdERF17-TACAT3 hot probe (dsDNA)
DNA 1: GGTGAGGTTTGGGTTGAATTTACATAATGAGTCACTCATAGTAAA
DNA 2: TTTACTATGAGTGACTCATTATGTAAATTCAACCCAAACCTCACC
For B1, the binding result in data set [1] and in data set [2] was “binds” in each case.

B2: MdHY5-TACAT hot probe (dsDNA)
DNA 1: GCTTCCCCGTAACCAAGAAATACATGCATTTTCCGTCCAGCACAC
DNA 2: GTGTGCTGGACGGAAAATGCATGTATTTCTTGGTTACGGGGAAGC
In the case of B2, the binding result in data set [1] and in data set [3] was “binds” throughout.

B3: MdERF17-G-box3 hot probe (dsDNA)
DNA 1: CCGTATGAGGACAAATAACACACGTGCTTCGAAACCCGTCTCTCTG
DNA 2: CAGAGAGACGGGTTTCGAAGCACGTGTGTTATTTGTCCTCATACGG
Consider B3, for which the binding result (with MdHY5; in data set [4]) was “binds” in each case.

B4: MdERF17-G-box2 hot probe (dsDNA)
DNA 1: ATCATATACATATATATATGCACGTTGAAAACTTAGCTCCTTTGTT
DNA 2: AACAAAGGAGCTAAGTTTTCAACGTGCATATATATATGTATATGAT
Take B4: in the data set with MdHY5, the binding result is recorded as “no binding”.

B5: MdERF17-G-box1 hot probe (dsDNA)
DNA 1: GTGTGTTTTATTGCATCATTCACGTGTCATCTTTGCAAAAAATTAG
DNA 2: CTAATTTTTTGCAAAGATGACACGTGAATGATGCAATAAAACACAC
Take B5: the binding result in the data set with MdHY5 is reported as “no binding”.
